{
  "source": "patent US20240382559A1",
  "about": "“PHARMACEUTICAL COMPOSITION COMPRISING KAI1 POLYPEPTIDE FOR INHIBITION OF HEPATIC FIBROSIS AND USE THEREOF” (PUSAN NATIONAL UNIVERSITY INDUSTRY-UNIVERSITY COOPERATION …, priority 2021, published 2024)",
  "key": {"[1]": {"test_system": "mouse liver cell line (AML12)", "assay": "qPCR of fibrosis-related genes in TGF-β1-treated liver cell line, rhKAI1 / pepKAI1 WT / pepKAI1 Mut", "type": "cell-based", "details": "200 or 500 ng/mL for 2 hours, then TGF-β1 2 ng/ml 24 hours", "experimental": "The effect of wild type KAI1 peptide (pepKAI1 WT) or mutant KAI1 peptide (pepKAI1 Mut) on fibrosis induced by treatment with TGF-β1 was confirmed in mouse liver cell line (AML12).\nSpecifically, the AML 12 cells were treated with recombinant human KAI1 protein (rhKAI1), wild type KAI1 peptide (pepKAI1 WT), and mutant KAI1 peptide (pepKAI1 Mut) at a concentration of 200 ng/mL or 500 ng/mL, respectively, and reacted for 2 hours. Thereafter, the cells were treated with TGF-β1 at a concentration of 2 ng/ml and cultured for an additional 24 hours, and then the cells were collected. RNA from the collected cells was extracted with Trizol, cDNA was synthesized, and then changes in expression of fibrosis-related genes (α-SMA, Col1a1, TIMP1, Vimentin, TGF-β, and fibronectin) were confirmed by qPCR analysis."}, "[2]": {"test_system": "acute hepatic fibrosis model mice", "assay": "H&E staining of liver tissue in CCl4 acute hepatic fibrosis animal model", "type": "in vivo", "details": "C57BL/6 male mice, CCl4 i.p. twice a week; 4 μg KAI1 protein i.p. per mouse on day 8, liver extracted day 11", "experimental": "(§1) Specifically, 7-week-old C57BL/6 male mice was prepared, and CCl4 was diluted in corn oil at a concentration of 1 mL/kg. In order to induce acute liver injury, the mice were injected intraperitoneally with the diluted CCl4 twice a week. As a control group, the mice were intraperitoneally injected with the same amount of the corn oil.\n(§2) As a KAI1 protein, a polypeptide (Human CD82/KAI-1 Protein (His Tag), Sino Biological Inc.) comprising a KAI1 fragment comprising a polypeptide (extracellular domain, SEQ ID NO: 4) consisting of the 111st to 228th amino acid sequence from the N terminus in a polypeptide consisting of the amino acid sequence of SEQ ID NO: 1 was used. On the 8th day after the start of the experiment, 4 μg of KAI1 protein was injected intraperitoneally per mouse, and on the 11th day, the mice were sacrificed and liver tissue was extracted.\nThe liver tissue extracted in Example 2.1. was fixed in 10% (v/v) formalin solution. Thereafter, the liver tissue was embedded in paraffin and sectioned to a thickness of 4 μm to prepare tissue sections. After deparaffinization and superhydration, H&E (hematoxylin & eosin) staining was performed and observed under an optical microscope."}, "[3]": {"test_system": "acute hepatic fibrosis model mice", "assay": "qPCR of fibrosis-related genes in liver tissue of CCl4 acute hepatic fibrosis animal model", "type": "in vivo, mouse", "details": "4 μg KAI1 protein i.p. day 8, liver day 11, vs. CCl4", "experimental": "as §1, §2\nRNA was obtained from the liver tissue extracted in Example 2.1. The RNA from the liver tissue was obtained using Favorgen® Trizol according to the manufacturer's instructions. The RNA was reverse transcribed into cDNA using a cDNA synthesis kit (Bioneer corp.). Thereafter, real-time PCR (qPCR) was performed to confirm changes in the expression levels of fibrosis-related genes Col1a1 (collagen type 1), fibronectin, and TGFβ1 (transforming growth factor-β1)."}, "[4]": {"test_system": "liver cell line (AML12)", "assay": "qPCR of fibrosis-related genes in TGF-β1-treated liver cell line, KAI1 protein", "type": "cell-based, mouse", "details": "200 or 500 ng/mL for 2 hours, then TGF-β1 2 ng/mL 24 hours", "experimental": "In order to confirm the activity of KAI1protein to inhibit hepatic fibrosis at the cellular level, the liver cell line (AML12), which had hepatic fibrosis induced by treatment with TGF-β1, was treated with KAI1 protein to confirm changes in the expression of fibrosis-related genes.\nSpecifically, the AML 12 cells were cultured in DMEM/F12 medium containing 10% (v/v) fetal bovine serum (FBS), 1% (w/v) penicillin-streptomycin, 10 μg/mL insulin, 5.5 μg/mL transferrin, 5 ng/mL selenium, and 40 ng/ml dexamethasone. The AML12 cells were treated with KAI1 protein at a concentration of 200 ng/ml or 500 ng/mL, respectively, and reacted for 2 hours. Thereafter, the cells were treated with TGF-β1, a fibrosis-inducing cytokine, at a concentration of 2 ng/mL and cultured for an additional 24 hours, and then the cells were collected. RNA from the collected cells was extracted with Trizol, cDNA was synthesized, and then changes in expression of fibrosis-related genes (α-SMA, Col1a1, TIMP1, and MMP9) were confirmed by qPCR analysis."}, "[5]": {"test_system": "mouse liver cell line (AML12)", "assay": "Immunoblotting of ZO-1 (EMT) in TGF-β1-treated liver cell line", "type": "cell-based", "details": "500 ng/ml for 2 hours, then TGF-β1 24 or 48 hours", "experimental": "The epithelial-mesenchymal transition (EMT) process has been proposed as one of the mechanisms of fibrosis. Therefore, the effect of KAI1 protein on the EMT process induced by TGF-1 in mouse liver cell line (AML12) was confirmed.\nSpecifically, the AML12 cells were treated with of KAI1 protein at a concentration of 500 ng/ml and reacted for 2 hours. Thereafter, the cells were treated with TGF-β1 and cultured for an additional 24 hours or 48 hours, and then the cells were collected. The collected cells were lysed in RIPA buffer containing protease inhibitors to extract proteins, and immunoblotting was performed by loading an equal amount of proteins. The protein expression level of ZO-1 was confirmed using an antibody of ZO-1 (anti-ZO antibody, 13663, Abcam), an epithelial biomarker during the EMT process. At this time, anti-tubulin antibody (T5168, Sigma-Aldrich) was used as an internal control, and HRP-conjugated anti-rabbit antibody (ADI-SAB-300-J, Enzo Life Sciences) was used as a secondary antibody."}, "[6]": {"test_system": "human hepatic stellate cell line (LX2)", "assay": "Cell proliferation by MTS assay in hepatic stellate cell line", "type": "cell-based", "details": "rhKAI1 200 or 500 ng/mL, 24 or 48 hours", "experimental": "(§3) It is known that fibrosis occurs due to excessive proliferation and activation of hepatic stellate cells. Therefore, changes in fibrosis-related gene expression by treatment with KAI1 protein were confirmed in human hepatic stellate cell line (LX2).\n(§4) Specifically, the LX2 cell line was treated with recombinant human KAI1 protein (rhKAI1) at a concentration of 200 ng/mL or 500 ng/mL, respectively. Thereafter, the cells were cultured for 24 hours or 48 hours and collected to confirm cell proliferation and fibrosis-related gene expression in the cells. The cell proliferation was measured using MTS assay. RNA from the collected cells was extracted with Trizol, cDNA was synthesized, and then changes in expression of fibrosis-related genes (α-SMA, Col1a1, Vimentin, TGF-β, and GFAP) were confirmed by qPCR analysis."}, "[7]": {"test_system": "human hepatic stellate cell line (LX2)", "assay": "qPCR of fibrosis-related genes in hepatic stellate cell line", "type": "cell-based", "details": "rhKAI1 200 or 500 ng/mL, 24 or 48 hours", "experimental": "as §3, §4"}, "[8]": {"test_system": "human hepatic stellate cell line (LX2)", "assay": "Immunoblotting of fibrosis-related proteins in hepatic stellate cell line", "type": "cell-based", "details": "200 or 500 ng/mL, 24 or 48 hours, vs. untreated group", "experimental": "as §4\nThe expression of fibrosis-related proteins was confirmed in human hepatic stellate cell line (LX2) treated with KAI1 protein in the same manner as in Example 4.1. At this time, anti-Vimentin antibody (sc-5565, Santa Cruz Biotech.), anti-Col1α1 antibody (NBP1-30054, Novus Biological), anti-α-SMA antibody (A5228, Sigma-Aldrich), anti-GFAP antibody (Z0334, Dako), and anti-GAPDH antibody (MCA4739, AbD Serptec) were used as primary antibodies, and HRP-conjugated anti-rabbit antibody (ADI-SAB-300-J, Enzo Life Sciences) and anti-mouse antibody (ADI-SAB-100-J) were used as secondary antibodies."}, "[9]": {"test_system": "human hepatic stellate cell line (LX2)", "assay": "qPCR of senescence-related genes in hepatic stellate cell line", "type": "cell-based", "details": "200 or 500 ng/mL, 24 or 48 hours, vs. control group", "experimental": "as §4\nIt is known that hepatic stellate cells can inhibit hepatic fibrosis by inducing senescence in the liver. Therefore, the expression of senescence-related genes (HGMA1, p16, p21 and p53, SIRT1) was confirmed in human hepatic stellate cell line (LX2) treated with KAI1 protein in the same manner as in Example 4.1."}, "[10]": {"test_system": "human hepatic stellate cell line (LX2)", "assay": "Immunoblotting of senescence-related proteins in hepatic stellate cell line", "type": "cell-based", "details": "200 or 500 ng/mL, 24 or 48 hours, vs. untreated group", "experimental": "as §4\nThe expression of senescence-related proteins was confirmed in human hepatic stellate cell line (LX2) treated with KAI1 protein in the same manner as in Example 4.1. At this time, anti-SIRT1 antibody (ab32441, Abcam), anti-p16 antibody (10883-1-ap, Protein tech.), and anti-GAPDH antibody (MCA4739, AbD Serptec) were used as primary antibodies, and HRP-conjugated anti-rabbit antibody (ADI-SAB-300-J, Enzo Life Sciences) and anti-mouse antibody (ADI-SAB-100-J) were used as secondary antibodies."}},
  "data": [
    {"molecule": "pepKAI1 WT: 20 amino acid functional KAI1 peptide with Y*C and EED motifs, NRPEVTYPCSCEVKGEEDNS (SEQ ID NO: 2) (Wild type KAI1 polypeptide)", "values": [
      {"measurement": "expression of fibrosis-related genes (α-SMA, Col1a1, TIMP1, Vimentin, TGF-β, fibronectin) increased by TGF-β1 (qPCR)", "setting": "[1]", "result": "reduced"},
      {"measurement": "fibrosis-related gene expression compared to the group treated with rhKAI1 protein (qPCR)", "setting": "[1]; comparison with rhKAI1", "result": "further reduced"}
    ]},
    {"molecule": "pepKAI1 Mut: mutant peptide with both Y*C and EED substituted with alanine, NRPEVTAPASCEVKGAAANS (SEQ ID NO: 3) (Mutant KAI1 polypeptide)", "values": [
      {"measurement": "expression of fibrosis-related genes (α-SMA, Col1a1, TIMP1, Vimentin, TGF-β, fibronectin) increased by TGF-β1 (qPCR)", "setting": "[1]", "result": "not reduced"}
    ]},
    {"molecule": "KAI1 protein: Human CD82/KAI-1 Protein (His Tag), Sino Biological; comprises extracellular domain, amino acids 111 to 228 of SEQ ID NO: 1 (SEQ ID NO: 4) (protein, His tag; Extracellular domain of recombinant human KAI1 protein) GKLKQEMGGIVTELIRDYNSSREDSLQDAWDYVQAQVKCCGWVSFYNWTDNAELMNRPEVTYPCSCEVKGEEDNSLSVRKGFCEAPGNRTQSGNHPEDWPVYQEGCMEKVQAWLQENL", "values": [
      {"measurement": "degree of cell damage and inflammatory cell infiltration (H&E staining of liver tissue)", "setting": "[2]", "result": "reduced"},
      {"measurement": "gene expression of Col1a1 in liver tissue (qPCR)", "setting": "[3]", "result": "reduced"},
      {"measurement": "gene expression of TGF-β1 in liver tissue (qPCR)", "setting": "[3]", "result": "reduced"},
      {"measurement": "gene expression of fibronectin in liver tissue (qPCR)", "setting": "[3]", "result": "reduced"},
      {"measurement": "expression of fibrosis-related genes (α-SMA, Col1a1, TIMP1, MMP9) increased by TGF-β1 (qPCR)", "setting": "[4]", "result": "reduced"},
      {"measurement": "expression of ZO-1 protein reduced by TGF-β1 (immunoblotting)", "setting": "[5]", "result": "recovered"},
      {"measurement": "cell proliferation (MTS assay)", "setting": "[6]", "result": "significantly reduced"},
      {"measurement": "gene expression of Col1a1 (qPCR)", "setting": "[7]", "result": "significantly reduced"},
      {"measurement": "gene expression of GFAP, marker gene for resting stellate cells (qPCR)", "setting": "[7]", "result": "tendency to increase"},
      {"measurement": "gene expression of TGF-β (qPCR)", "setting": "[7]", "result": "significantly reduced"},
      {"measurement": "gene expression of Vimentin (qPCR)", "setting": "[7]", "result": "significantly reduced"},
      {"measurement": "gene expression of α-SMA (qPCR)", "setting": "[7]", "result": "significantly reduced"},
      {"measurement": "protein expression of Col1α1 (immunoblotting)", "setting": "[8]", "result": "reduced"},
      {"measurement": "protein expression of GFAP (immunoblotting)", "setting": "[8]", "result": "increased"},
      {"measurement": "protein expression of Vimentin (immunoblotting)", "setting": "[8]", "result": "reduced"},
      {"measurement": "protein expression of α-SMA (immunoblotting)", "setting": "[8]", "result": "reduced"},
      {"measurement": "expression of SIRT1, a senescence inhibition marker (qPCR)", "setting": "[9]", "result": "reduced"},
      {"measurement": "expression of senescence marker gene HGMA1 (qPCR)", "setting": "[9]", "result": "increased"},
      {"measurement": "expression of senescence marker gene p16 (qPCR)", "setting": "[9]", "result": "increased"},
      {"measurement": "expression of senescence marker gene p21 (qPCR)", "setting": "[9]", "result": "increased"},
      {"measurement": "expression of senescence marker gene p53 (qPCR)", "setting": "[9]", "result": "increased"},
      {"measurement": "expression of SIRT1, a senescence inhibition marker protein (immunoblotting)", "setting": "[10]", "result": "reduced"},
      {"measurement": "expression of p16, a senescence marker protein (immunoblotting)", "setting": "[10]", "result": "increased"}
    ]}
  ]
}
